In patent US20040005630A1 (published 2004):
Positions count from the first letter of the chain named. Each block holds one molecule with its values, some of them ahead of it.

Experiments:
[1] = target: T1, rat CD5 antigen (rat equivalent of CD5) present on rat T cells (rat) (UniProt P51882); experiment: flow cytometry of rat lymph node cells 3 h after 0.5 mg/kg i.v., PE anti-mouse IgG1 detection
T1 sequence (looked up): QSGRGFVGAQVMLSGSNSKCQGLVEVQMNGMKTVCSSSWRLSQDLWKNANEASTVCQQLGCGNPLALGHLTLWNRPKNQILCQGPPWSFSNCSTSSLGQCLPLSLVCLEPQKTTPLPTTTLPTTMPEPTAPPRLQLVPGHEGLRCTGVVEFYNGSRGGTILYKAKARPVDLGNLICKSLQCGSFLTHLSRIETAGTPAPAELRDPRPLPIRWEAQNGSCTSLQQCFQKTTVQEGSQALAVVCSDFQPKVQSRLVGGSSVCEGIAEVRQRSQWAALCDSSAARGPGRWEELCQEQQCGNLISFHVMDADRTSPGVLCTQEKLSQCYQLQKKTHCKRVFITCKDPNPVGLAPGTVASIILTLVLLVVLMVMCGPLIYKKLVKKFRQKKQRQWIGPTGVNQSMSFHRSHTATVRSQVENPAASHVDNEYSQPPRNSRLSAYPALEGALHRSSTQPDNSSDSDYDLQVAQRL

[2] = target: T1, rat CD5 antigen (rat equivalent of CD5) present on rat T cells (rat); experiment: flow cytometry of rat blood cells 3 h after 0.5 mg/kg i.v., PE anti-mouse IgG1 detection
[3] = target: T1, rat CD5 antigen (rat equivalent of CD5) present on rat T cells (rat); experiment: flow cytometry of rat spleen cells 3 h after 0.5 mg/kg i.v., PE anti-mouse IgG1 detection
[4] = target: T1, rat CD5 antigen (rat equivalent of CD5) present on rat T cells (rat); experiment: flow cytometry of rat blood cells 3 h after 0.5 mg/kg i.v., PE anti-mouse IgG1 detection (isotype matched negative control)
[5] = target: T1, rat CD5 antigen (rat equivalent of CD5) present on rat T cells (rat); experiment: flow cytometry of rat lymph node cells 3 h after 0.5 mg/kg i.v., PE anti-mouse IgG1 detection (isotype matched negative control)
[6] = target: T1, rat CD5 antigen (rat equivalent of CD5) present on rat T cells (rat); experiment: flow cytometry of rat spleen cells 3 h after 0.5 mg/kg i.v., PE anti-mouse IgG1 detection (isotype matched negative control)
human CD5 antigen = target: T2, human CD5 antigen (human, UniProt P06127 25-495); experiment: competitive binding on Molt4-M cells, single point at 0.54 nM, competitor 125I-cH65 IgG
T2 construct: whole, on cells; also called gp67; CD5 found on Molt-4M
T2 sequence (looked up): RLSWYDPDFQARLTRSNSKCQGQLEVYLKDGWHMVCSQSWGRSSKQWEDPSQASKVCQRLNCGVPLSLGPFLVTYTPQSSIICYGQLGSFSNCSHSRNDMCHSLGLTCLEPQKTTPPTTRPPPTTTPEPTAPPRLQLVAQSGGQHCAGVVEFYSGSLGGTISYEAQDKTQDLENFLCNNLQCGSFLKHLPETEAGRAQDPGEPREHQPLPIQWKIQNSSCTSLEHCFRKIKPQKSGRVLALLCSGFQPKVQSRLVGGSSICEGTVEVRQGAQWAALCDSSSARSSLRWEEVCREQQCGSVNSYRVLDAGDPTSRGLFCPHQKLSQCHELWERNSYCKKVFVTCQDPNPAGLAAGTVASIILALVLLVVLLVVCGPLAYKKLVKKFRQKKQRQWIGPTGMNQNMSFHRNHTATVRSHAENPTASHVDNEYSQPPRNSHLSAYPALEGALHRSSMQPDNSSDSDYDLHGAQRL
Procedure: Molt4-M cells, which express CD5 on their surface, were plated into 96 well V-bottom plates at a density of 3×10⁵ cells per well and pelleted by centrifugation. The medium was decanted, and 100 μl of purified cH65 IgG at final concentrations from 200 nM to 0.0017 nM (diluted in 3-fold steps) in “BHD” [DMEM (Dulbecco's Modified Eagle's Medium)+1% BSA+10 mM Hepes, pH 7.2] (BHD) was added to each well, followed by 100 μl of ¹²⁵I-cH65 IgG (final concentration=0.1 nM) in BHD. For single point determinations, 50-100 μl of the Centricon® concentrates were added to the wells as follows: hH65 (final concentration=0.54 nM), cH65 (final concentration=0.22 nM), CM+purified cH65 IgG (final concentration=30 nM) and CM alone. These were followed by addition of ¹²⁵I-cH65 IgG (final concentration=0.1 nM). Binding was allowed to proceed for 5 hours at 4° C. At the end of 5 hours, binding was terminated by three washes with ice cold BHD using centrifugation to pellet cells. Radioactivity was determined by solubilizing bound ¹²⁵I-cH65 IgG with 1N NaOH and counting in a Beckman Gamma 8000 (Beckman Instruments, Fullerton, Calif.).

% of CD4 cells that are also positive for mouse IgG1 [1]: 96.2%
% of CD8 cells that are also positive for mouse IgG1 [1]: 96.8%
% of CD4 cells that are also positive for mouse IgG1 [2]: 96.2%
% of CD8 cells that are also positive for mouse IgG1 [2]: 70.2%
% of CD4 cells that are also positive for mouse IgG1 [3]: 84.8%
% of CD8 cells that are also positive for mouse IgG1 [3]: 73.6%
Molecule: OX19 MoAb (antibody)

% of CD4 cells that are also positive for mouse IgG1 [4]: 6.7%
% of CD8 cells that are also positive for mouse IgG1 [4]: 5.7%
% of CD4 cells that are also positive for mouse IgG1 [5]: 4.2%
% of CD8 cells that are also positive for mouse IgG1 [5]: 6.5%
% of CD4 cells that are also positive for mouse IgG1 [6]: 14.8%
% of CD8 cells that are also positive for mouse IgG1 [6]: 20.6%
B1: MoAb H65 (murine monoclonal antibody produced by cell line XMMLY-H65) (antibody, V domains shown)
VH: QIQLVQSGPELKKPGETVKISCKASGYTFTNYGMNWVKQAPGKGLRWMGWINTHTGEPTYADDFKGRFAFSLETSASTAYLQINNLKNEDTATYFCTRRGYDWYFDVWGAGTTVTVSS
VL: DIKMTQSPSSMYASLGERVTITCKASQDINSYLSWFQQKPGKSPKTLIYRANRLVDGVPSRFSGSGSGQDYSLTISSLDYEDMGIYYCQQYDESPWTFGGGTKLEIK

binding result (human CD5 antigen): binds
B2: humanized H65 IgG (low-risk modified H65) (antibody, V domains shown)
VH: QIQLVQSGPGLKKPGGSVRISCAASGYTFTNYGMNWVKQAPGKGLRWMGWINTHTGEPTYADDFKGRFTFSLDTSKSTAYLQINSLRAEDTATYFCTRRGYDWYFDVWGQGTTVTVSS
VL: B1 VL with K3Q, Y12S, E17D, K24R, Q69T, S72T, D79Q, M83F
notes: Whole IgG transiently expressed in CHO-K1 from vectors pING4612 (heavy) and pING4614 (light); Human constant regions; also called hH65; H65 antibody modified according to the methods of the present invention
